Measurements taken from the RNAGym collection of RNA variant scans (doi:10.7554/elife.90254).

B1: OR4K15 (parent)
chain: GUUAACGGUCAUAGGCCAUGGAAACUAGGAGCACCAUUUCGCUGCCAGUGAAGAAAUGAACAAAGAAAAUCUGGGCCAGGCAGGCAUCAAAAGAAAUAGUCUUGCGCUCAACCAGAAAGUCUGUAAUCAUUUUAAGGGUA

Variants of: B1
Assay: self-cleavage, relative activity (ratio to wild type); higher = more cleavage; in vitro, sequencing; the parent is a self-cleaving ribozyme

Going from GUUAACGGUCAUAGGCCAUGGAGACUAGGAGCACCAUUUCGCUGCCAGUGAAGAAAUGAACAAAGAAAACCUGGGCCAGGCAGGCAUCAAAAGAAAUAGUCUUGCGCUCAACCAGAAAGUCUGUAAUCAUUUUAAGGGUA [A23G U70C] to GUUAACGGUCAUAGGCCAUGGAGACUAGGAGCACCAUUUCGCUGCCAGUGAAGAAAUGAACAAAGAAAAACUGGGCCAGGCAGGCAUCAAAAGAAAUAGUCUUGCGCUCAACCAGAAAGUCUGUAAUCAUUUUAAGGGUA [A23G U70A], the self-cleavage rises from 0.64 to 0.97.

First: GUUAACGGUCAUAGGCCAUGGAUGCUAGGAGCACCAUUUCGCUGCCAGUGAAGAAAUGAACAAAGAAAAUCUGGGCCAGGCAGGCAUCAAAAGAAAUAGUCUUGCGCUCAACCAGAAAGUCUGUAAUCAUUUUAAGGGUA [A23U A24G]
Second: GUUAACGGUCAUAGGCCAUGGAUACUAGGAGCACCAUUUCGCUGCCAGUGAAGAAAUGAACAAAGAAAAUCUGGGCCAGGCGGGCAUCAAAAGAAAUAGUCUUGCGCUCAACCAGAAAGUCUGUAAUCAUUUUAAGGGUA [A23U A82G]
The self-cleavage of the first is higher: 1.15 for the first, 0.82 for the second.

Going from GUUAACGGUCAUAGGCCAUGGAUACUAGGAGCACCAUUUCGCUGCCAGUGAAGAAAUGAACAAAGAAAAUCUGGGCCAGGCAGGCAUCAAAAGAAAUAGUCUUGCGCUCAACCAGAAAGUCUGUAAUCAUUUUAAGGGUA [A23U] to GUUAACGGUCAUAGGCCAUGGAUACUAGGAGCACCAUUUCGCUGCCAGUGAAGAAAUGAACAAAGAAAGUCUGGGCCAGGCAGGCAUCAAAAGAAAUAGUCUUGCGCUCAACCAGAAAGUCUGUAAUCAUUUUAAGGGUA [A23U A69G], the self-cleavage falls from 1.19 to 1.02.

First: GUUAACGGUCAUAGGCCAUGGAUACUAGGAGCACCAUUUCGCUGCCAGUGAAGAAAUGAACAGAGAAAAUCUGGGCCAGGCAGGCAUCAAAAGAAAUAGUCUUGCGCUCAACCAGAAAGUCUGUAAUCAUUUUAAGGGUA [A23U A63G]
Second: GUUAACGGUCAUAGGCCAUGGAGACUAGGAGCACCAUUUCGCUGCCAGUGAAGAAAUGAACAAAGAAAAUCUGGGCCAGGCAGGCAUCAAAAGAAAUAGACUUGCGCUCAACCAGAAAGUCUGUAAUCAUUUUAAGGGUA [A23G U100A]
The self-cleavage of the first is higher: 0.92 for the first, 0.74 for the second.

Compared with GUUAACGGUCAUAGGCCAUGGAGACUAGGAGCACCAUUUCGCUGCCAGUGAAGAAAUGAACAAAGAAAAUCUGGGCCAGGCAGGCAUCAAAAGAAAUAGCCUUGCGCUCAACCAGAAAGUCUGUAAUCAUUUUAAGGGUA [A23G U100C], GUUAACGGUCAUAGGCCAUGGAGACUAGGAGCACCAUUUCGCUGCCAGUGAAGAAAAGAACAAAGAAAAUCUGGGCCAGGCAGGCAUCAAAAGAAAUAGUCUUGCGCUCAACCAGAAAGUCUGUAAUCAUUUUAAGGGUA [A23G U57A] is lower in self-cleavage: 1.72 for the first, 0.53 for the second.

First: GUUAACGGUCAUAGGCCAUGGAGACUAGGAGCACCAUUUCGCUGCCAGUGAAGAAACGAACAAAGAAAAUCUGGGCCAGGCAGGCAUCAAAAGAAAUAGUCUUGCGCUCAACCAGAAAGUCUGUAAUCAUUUUAAGGGUA [A23G U57C]
Second: GUUAACGGUCAUAGGCCAUGGAGACUAGGAGCACCAUUUCGCUGCCAGUGAAGAAAUGAACAAAGAAAAUCUGGGCCAGGCAGGCAUCAAAAGAAAUAGUCUCGCGCUCAACCAGAAAGUCUGUAAUCAUUUUAAGGGUA [A23G U103C]
The self-cleavage of the first is higher: 1.04 for the first, 0.77 for the second.

First: GUUAACGGUCAUAGGCCAUGGAUACUAGGAGCACCAUUUCGCUGCCAGUGAAGAAAUGAACAAAGUAAAUCUGGGCCAGGCAGGCAUCAAAAGAAAUAGUCUUGCGCUCAACCAGAAAGUCUGUAAUCAUUUUAAGGGUA [A23U A66U]
Second: GUUAACGGUCAUAGGCCAUGGAUACUAGGAGCGCCAUUUCGCUGCCAGUGAAGAAAUGAACAAAGAAAAUCUGGGCCAGGCAGGCAUCAAAAGAAAUAGUCUUGCGCUCAACCAGAAAGUCUGUAAUCAUUUUAAGGGUA [A23U A33G]
The self-cleavage of the first is higher: 1.42 for the first, 1.06 for the second.

Compared with GUUAACGGUCAUAGGCCAUGGAUACUAGGAGCACCAUUUCGCUGCCAGUGAAGAAAUGAACAAAGAAAAUCUGGGCCAGGCAGGCAUCGAAAGAAAUAGUCUUGCGCUCAACCAGAAAGUCUGUAAUCAUUUUAAGGGUA [A23U A89G], GUUAACGGUCAUAGGCCAUGGAGACUAGGAGCACCAUUUCGCUGCCAGUGAAGAAAUGAACAAAGAAAAUCUGGGCCAGGCAGGCAUCAAAAGAAAUAGUCUUGCGCUCAACCAGAAAGUCUGUAAUCAUUUCAAGGGUA [A23G U133C] is higher in self-cleavage: 0.86 for the first, 1.35 for the second.

Compared with GUUAACGGUCAUAGGCCAUGGAGACUAGGAGCACCAUUUCGCUGCCAGUGAAGAAAUGAACAAAGAAAAUCUGGGCCAGGCAGGCAUCAAAAGAAAUAGUCUUGCGCUCAACCAGAAAGUCAGUAAUCAUUUUAAGGGUA [A23G U122A], GUUAACGGUCAUAGGCCAUGGAUACUAGGAGCACCAUUUCGCUGCCAGUGAAGAAAUGGACAAAGAAAAUCUGGGCCAGGCAGGCAUCAAAAGAAAUAGUCUUGCGCUCAACCAGAAAGUCUGUAAUCAUUUUAAGGGUA [A23U A59G] is higher in self-cleavage: 1.72 for the first, 2.4 for the second.

Going from GUUAACGGUCAUAGGCCAUGGAUACUAGGAGCACCAUUUCGCUGCCAGUGGAGAAAUGAACAAAGAAAAUCUGGGCCAGGCAGGCAUCAAAAGAAAUAGUCUUGCGCUCAACCAGAAAGUCUGUAAUCAUUUUAAGGGUA [A23U A51G] to GUUAACGGUCAUAGGCCAUGGAUACUAGGAGCACCAUUUCGCUGCCAGUGUAGAAAUGAACAAAGAAAAUCUGGGCCAGGCAGGCAUCAAAAGAAAUAGUCUUGCGCUCAACCAGAAAGUCUGUAAUCAUUUUAAGGGUA [A23U A51U], the self-cleavage rises from 1.24 to 1.33.

Going from GUUAACGGUCAUAGGCCAUGGAUACUAGGAGCACCAUUUCGCUGCCAGUGAAGAAAUGAACAAAGAAGAUCUGGGCCAGGCAGGCAUCAAAAGAAAUAGUCUUGCGCUCAACCAGAAAGUCUGUAAUCAUUUUAAGGGUA [A23U A68G] to GUUAACGGUCAUAGGCCAUGGAGACUAGGAGCACCAUUUCGCUGCCAGUGAAGAAAUGAACAAAGAAAAUCUGGGCCAGGCAGGCAUCAAAAGAAAUAGUCAUGCGCUCAACCAGAAAGUCUGUAAUCAUUUUAAGGGUA [A23G U102A], the self-cleavage falls from 1.45 to 0.82.

First: GUUAACGGUCAUAGGCCAUGGAGACUAGGAGCACCAUUUCGCUGCCAGUGAAGAAAUGAACAAAGAAAAUCUGGGCCAGGCAGGCAUCAAAAGAAAUAGUCUUGCGCUCAACCAGAAAGUCUGUAAUCAUUAUAAGGGUA [A23G U132A]
Second: GUUAACGGUCAUAGGCCAUGGAGACUAGGAGCACCAUUUCGCUGCCAGUGAAGAAAUGAACAAAGAAAAUCUGGGCCAGGCAGGCAUCAAAAGAAAUAGUCUUGCGCUCAACCAGAAAGUCUGUAAUCAUUCUAAGGGUA [A23G U132C]
The self-cleavage of the first is lower: 0.86 for the first, 1.07 for the second.

First: GUUAACGGUCAUAGGCCAUGGAUACUAGGAGCACCAUUUCGCUGCCAGUGAAGAAAUGAACAAAGAAAAUCUGGGCCUGGCAGGCAUCAAAAGAAAUAGUCUUGCGCUCAACCAGAAAGUCUGUAAUCAUUUUAAGGGUA [A23U A78U]
Second: GUUAACGGUCAUAGGCCAUGGAUACUAGGAGCACCAUUUCGCUGCCAGUGAAGAAAUGAACAAAGAAAAUCUGGGCCAGGCAGGCAUCAAGAGAAAUAGUCUUGCGCUCAACCAGAAAGUCUGUAAUCAUUUUAAGGGUA [A23U A91G]
The self-cleavage of the first is lower: 0.2 for the first, 0.79 for the second.

Going from GUUAACGGUCAUAGGCCAUGGAGACUAGGAGCACCAUUUCGCUGCCAGUGAAGAAAUGAACAAAGAAAAUCUGGGCCAGGCAGGCAUCAAAAGAAAUAGUCUUGCGCCCAACCAGAAAGUCUGUAAUCAUUUUAAGGGUA [A23G U108C] to GUUAACGGUCAUAGGCCAUGGAGACUAGGAGCACCAUUUCGCUGCCAGUGAAGAAAUGAACAAAGAAAAUCUGGGCCAGGCAGGCAUCAAAAGAAAUAGUCUUGCGCGCAACCAGAAAGUCUGUAAUCAUUUUAAGGGUA [A23G U108G], the self-cleavage falls from 0.03 to 0.

Compared with GUUAACGGUCAUAGGCCAUGGAUACUAGGAGCACCUUUUCGCUGCCAGUGAAGAAAUGAACAAAGAAAAUCUGGGCCAGGCAGGCAUCAAAAGAAAUAGUCUUGCGCUCAACCAGAAAGUCUGUAAUCAUUUUAAGGGUA [A23U A36U], GUUAACGGUCAUAGGCCAUGGAUACUAGGAGCACCAUUUCGCUGCCAGUGAAGAAAUGAACAAAGAAAAUCUGGGCCAGGCAGGCCUCAAAAGAAAUAGUCUUGCGCUCAACCAGAAAGUCUGUAAUCAUUUUAAGGGUA [A23U A86C] is lower in self-cleavage: 1.53 for the first, 0.82 for the second.

First: GUUAACGGUCAUAGGCCAUGGAGACUAGGAGCACCAUUUCGCUGCCAGUGAAGAAAUGAACAAAGAAAAUCUGGGCCAGGCAGGCAUCAAAAGAAAGAGUCUUGCGCUCAACCAGAAAGUCUGUAAUCAUUUUAAGGGUA [A23G U97G]
Second: GUUAACGGUCAUAGGCCAUGGAGACUAGGAGCACCAUCUCGCUGCCAGUGAAGAAAUGAACAAAGAAAAUCUGGGCCAGGCAGGCAUCAAAAGAAAUAGUCUUGCGCUCAACCAGAAAGUCUGUAAUCAUUUUAAGGGUA [A23G U38C]
The self-cleavage of the first is lower: 1.16 for the first, 1.38 for the second.

Compared with GUUAACGGUCAUAGGCCAUGGAUACUAGGAGCACCAUUUCGCUGCCAGUGAAGAAGUGAACAAAGAAAAUCUGGGCCAGGCAGGCAUCAAAAGAAAUAGUCUUGCGCUCAACCAGAAAGUCUGUAAUCAUUUUAAGGGUA [A23U A56G], GUUAACGGUCAUAGGCCAUGGAUACUAGGAGCACCAUUUCGCUGCCAGUGAAGAAAUGAACAAAGAUAAUCUGGGCCAGGCAGGCAUCAAAAGAAAUAGUCUUGCGCUCAACCAGAAAGUCUGUAAUCAUUUUAAGGGUA [A23U A67U] is higher in self-cleavage: 1.29 for the first, 1.91 for the second.

Going from GUUAACGGUCAUAGGCCAUGGAGACUAGGAGCACCAUUUCGCUGCCAGUGAAGAAAUGAACAAAGAAAAUCUGGGCCAGGCAGGCAUCAAAAGAAAUAGUCUUGCGCUCAACCAGAAAGUCUGUAAUCACUUUAAGGGUA [A23G U130C] to GUUAACGGUCAUAGGCCAUGGAUACUAGGAGCACCAUUUCGCUGCCAGUGAAGAAAUGAACAAAGAAAAUCUGGGCCAGGCAGGCAUCAAAGGAAAUAGUCUUGCGCUCAACCAGAAAGUCUGUAAUCAUUUUAAGGGUA [A23U A92G], the self-cleavage rises from 0.57 to 1.46.

Compared with GUUAACGGUCAUAGGCCAUGGAGACUAGGAGCACCAUUUCGCUGCCAGUGAAGAAAUGAACAAAGAAAAUCAGGGCCAGGCAGGCAUCAAAAGAAAUAGUCUUGCGCUCAACCAGAAAGUCUGUAAUCAUUUUAAGGGUA [A23G U72A], GUUAACGGUCAUAGGCCAUGGAGACUAGGAGCACCAUUUCGCUGCCAGAGAAGAAAUGAACAAAGAAAAUCUGGGCCAGGCAGGCAUCAAAAGAAAUAGUCUUGCGCUCAACCAGAAAGUCUGUAAUCAUUUUAAGGGUA [A23G U49A] is higher in self-cleavage: 0.23 for the first, 1.12 for the second.

First: GUUAACGGUCAUAGGCCAUGGAGACUAGGAGCACCAUUUCGCUGCCAGGGAAGAAAUGAACAAAGAAAAUCUGGGCCAGGCAGGCAUCAAAAGAAAUAGUCUUGCGCUCAACCAGAAAGUCUGUAAUCAUUUUAAGGGUA [A23G U49G]
Second: GUUAACGGUCAUAGGCCAUGGAGACUAGGAGCACCAUUACGCUGCCAGUGAAGAAAUGAACAAAGAAAAUCUGGGCCAGGCAGGCAUCAAAAGAAAUAGUCUUGCGCUCAACCAGAAAGUCUGUAAUCAUUUUAAGGGUA [A23G U39A]
The self-cleavage of the first is higher: 1.02 for the first, 0.98 for the second.

With GUUAACGGUCAUAGGCCAUGGAGACUAGGAGCACCAUUUCGCAGCCAGUGAAGAAAUGAACAAAGAAAAUCUGGGCCAGGCAGGCAUCAAAAGAAAUAGUCUUGCGCUCAACCAGAAAGUCUGUAAUCAUUUUAAGGGUA [A23G U43A] the self-cleavage was 0.88.
